The results in this text go back to patent US20210393689A1 (JUNO THERAPEUTICS, published 2021).

The test addresses T1, murine GPRC5D (murine, UniProt Q9JIL6 1-344).
T1 construct: whole, on cells; also called mGPRC5D; mouse GPRC5D
T1 sequence (looked up): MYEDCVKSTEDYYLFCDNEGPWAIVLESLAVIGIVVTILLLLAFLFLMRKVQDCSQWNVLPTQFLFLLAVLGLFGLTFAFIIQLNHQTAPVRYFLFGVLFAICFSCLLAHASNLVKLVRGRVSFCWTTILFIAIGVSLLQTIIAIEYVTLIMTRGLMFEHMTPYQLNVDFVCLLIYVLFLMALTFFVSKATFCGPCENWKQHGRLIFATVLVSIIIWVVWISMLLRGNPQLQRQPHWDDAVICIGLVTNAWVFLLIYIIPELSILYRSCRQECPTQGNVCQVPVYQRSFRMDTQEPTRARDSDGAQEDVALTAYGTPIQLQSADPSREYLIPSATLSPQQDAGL
Description: Jurkat Nur77-RFP reporter activation after 1:1 co-culture with K562 cells expressing mGPRC5D (indirect read-out). The protocol:
K562 cells were transduced to express human (hGPRC5D), cGPRC5D or mGPRC5D. The Jurkat Nur77-RFP activation reporter line described above was transduced with polynucleotides constructs encoding CARs described in Example 3. […] Reporter cells were also incubated with parental K562 cells as a negative control.

B1: GPRC5D-203 VL/VH - long (anti-GPRC5D CAR: GPRC5D-203 VL/VH scFv, long spacer, CD28 transmembrane domain, 4-1BB and CD3zeta signaling domains) (other)
chain: SSELTQDPAVSVALGQTVRITCQGDSLRSYYASWYQQKPGQAPVLVIYGKNNRPSGIPDRFSGSSSGNTASLTITGAQAEDEADYYCNSRDSSGNPPVVFGGGTKLTVLGSRGGGGSGGGGSGGGGSLEMAQVQLVESGGGLVHPGGSLRLSCAASGFTFRSHSMNWVRQAPGKGLEWVSSISSDSTYTYYADSVKGRFTISRDNAKNSLYLQMNSLRAEDTAVYYCARSGGQWKYYDYWGQGTLVTVSSESKYGPPCPPCPAPPVAGPSVFLFPPKPKDTLMISRTPEVTCVVVDVSQEDPEVQFNWYVDGVEVHNAKTKPREEQFQSTYRVVSVLTVLHQDWLNGKEYKCKVSNKGLPSSIEKTISKAKGQPREPQVYTLPPSQEEMTKNQVSLTCLVKGFYPSDIAVEWESNGQPENNYKTTPPVLDSDGSFFLYSRLTVDKSRWQEGNVFSCSVMHEALHNHYTQKSLSLSLGKMFWVLVVVGGVLACYSLLVTVAFIIFWVKRGRKKLLYIFKQPFMRPVQTTQEEDGCSCRFPEEEEGGCELRVKFSRSADAPAYQQGQNQLYNELNLGRREEYDVLDKRRGRDPEMGGKPRRKNPQEGLYNELQKDKMAEAYSEIGMKGERRRGKGHDGLYQGLSTATKDTYDALHMQALPPR
notes: Chimeric antigen receptor on the surface of Jurkat Nur77-RFP reporter cells or primary T cells; signal peptide left out; In the reporter constructs a T2A-GFP follows the CAR, so T2A residues may remain at the C-terminus
For B1, the binding result is reported as “no binding”.
